Source: US20160068605A1 (Janssen / Centocor, published 2016)
Substitutions are numbered along the chain they refer to.

T1: human CD123 SP1 ECD displayed on pDisplay-transfected cells (human, UniProt P26951 20-305)
T1 construct: ECD anchored on the surface of stably transfected HEK293 cells by the PDGFR transmembrane domain; also called hCD123 SP1 cells; hCD123 cells
T1 sequence: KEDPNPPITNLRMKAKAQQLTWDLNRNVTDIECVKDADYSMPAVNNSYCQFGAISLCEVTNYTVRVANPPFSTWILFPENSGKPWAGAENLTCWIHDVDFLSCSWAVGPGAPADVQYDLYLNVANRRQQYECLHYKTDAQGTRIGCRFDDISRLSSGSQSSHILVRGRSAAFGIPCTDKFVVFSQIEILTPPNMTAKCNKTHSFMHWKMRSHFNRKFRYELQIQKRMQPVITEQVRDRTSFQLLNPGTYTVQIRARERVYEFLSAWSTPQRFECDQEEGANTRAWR

T2: human CD123 SP2 ECD displayed on pDisplay-transfected cells (human, UniProt P26951 101-305)
T2 construct: ECD anchored on the surface of stably transfected HEK293 cells; also called hCD123 SP2 cells; pDisplay CD123SP2
T2 sequence: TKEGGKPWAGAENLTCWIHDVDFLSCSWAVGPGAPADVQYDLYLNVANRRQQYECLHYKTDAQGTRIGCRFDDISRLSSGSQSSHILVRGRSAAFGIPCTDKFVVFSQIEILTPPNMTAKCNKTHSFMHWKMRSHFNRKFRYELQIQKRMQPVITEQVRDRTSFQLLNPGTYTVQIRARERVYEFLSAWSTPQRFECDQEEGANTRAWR

T3: Recombinant human CD123 SP1 ECD-His tag protein (human, UniProt P26951 20-305)
T3 construct: bought from R&D Systems (#301-R3/CF); biotinylated for some assays; also called rhCD123 SP1; huCD123 ECD SP1
T3 sequence: T1 sequence

T4: Recombinant human CD123 SP2 ECD protein (human, UniProt P26951 101-303)
T4 construct: also called rhCD123 SP2; CD123 ECD SP2
T4 sequence: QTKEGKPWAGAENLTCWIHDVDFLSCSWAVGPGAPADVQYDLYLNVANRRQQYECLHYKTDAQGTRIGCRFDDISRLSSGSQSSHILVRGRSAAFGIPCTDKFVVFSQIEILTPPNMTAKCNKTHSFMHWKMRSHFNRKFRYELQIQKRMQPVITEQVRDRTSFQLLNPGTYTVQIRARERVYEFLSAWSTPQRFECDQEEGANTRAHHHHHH

B1: bispecific antibody 9958 Ab (bispecific antibody, human IgG4 S228P, kappa, lambda, F234A L235A)
heavy 1: EVQLVESGGGLVQPGGSLKLSCAASGFTFNTYAMNWVRQASGKGLEWVGRIRSKYNAYATYYAASVKGRFTISRDDSKNTAYLQMNSLKTEDTAVYYCTRHGNFGNSYVSWFAYWGQGTLVTVSSASTKGPSVFPLAPCSRSTSESTAALGCLVKDYFPEPVTVSWNSGALTSGVHTFPAVLQSSGLYSLSSVVTVPSSSLGTKTYTCNVDHKPSNTKVDKRVESKYGPPCPPCPAPEAAGGPSVFLFPPKPKDTLMISRTPEVTCVVVDVSQEDPEVQFNWYVDGVEVHNAKTKPREEQFNSTYRVVSVLTVLHQDWLNGKEYKCKVSNKGLPSSIEKTISKAKGQPREPQVYTLPPSQEEMTKNQVSLTCLVKGFYPSDIAVEWESNGQPENNYKTTPPVLDSDGSFLLYSKLTVDKSRWQEGNVFSCSVMHEALHNHYTQKSLSLSLGK
light 1: QAVVTQEPSLTVSPGGTVTLTCRSSTGAVTTSNYANWVQQKPGQAPRGLIGGTNKRAPGTPARFSGSLLGGKAALTLSGAQPEDEAEYYCALWYSNLWVFGGGTKLTVLGQPKAAPSVTLFPPSSEELQANKATLVCLISDFYPGAVTVAWKADSSPVKAGVETTTPSKQSNNKYAASSYLSLTPEQWKSHRSYSCQVTHEGSTVEKTVAPTECS
heavy 2: not shown
light 2: EIVLTQSPGTLSLSPGERATLSCRASQSVSSSYLAWYQQKPGQAPRLLIYGASSRATGIPDRFSGSGSGTDFTLTISRLEPEDFAVYYCQQDYGFPWTFGQGTKVEIKRTVAAPSVFIFPPSDEQLKSGTASVVCLLNNFYPREAKVQWKVDNALQSGNSQESVTEQDSKDSTYSLSSTLTLSKADYEKHKVYACEVTHQGLSSPVTKSFNRGEC
notes: IgG4-PAA; CD3 arm of CD3B220, CD123 arm of I3RB217 (I3RB18)
B2: bispecific antibody Ab 7959 (bispecific antibody, human IgG4 S228P, kappa, lambda, F234A L235A)
heavy 1: B1 heavy 1 with K19R, S41P, G49A, A57N, T80S, A81L, T99A
light 1: B1 light 1 with A2T, A80V
heavy 2: not shown
light 2: B1 light 2
notes: IgG4-PAA; CD3 arm of CD3B219, CD123 arm of I3RB217 (I3RB18)
B3: bispecific antibody Ab 8876 (bispecific antibody, human IgG4 S228P, kappa, lambda, F234A L235A)
heavy 1: EVQLLESGGGLVQPGGSLRLSCAASGFTFNTYAMNWVRQAPGKGLEWVARIRSKYNNYATYYADSVKGRFTISRDNSKNTLYLQMNSLRAEDTAVYYCVKHGNFGNSYVSWFAYWGQGTLVTVSSASTKGPSVFPLAPCSRSTSESTAALGCLVKDYFPEPVTVSWNSGALTSGVHTFPAVLQSSGLYSLSSVVTVPSSSLGTKTYTCNVDHKPSNTKVDKRVESKYGPPCPPCPAPEAAGGPSVFLFPPKPKDTLMISRTPEVTCVVVDVSQEDPEVQFNWYVDGVEVHNAKTKPREEQFNSTYRVVSVLTVLHQDWLNGKEYKCKVSNKGLPSSIEKTISKAKGQPREPQVYTLPPSQEEMTKNQVSLTCLVKGFYPSDIAVEWESNGQPENNYKTTPPVLDSDGSFLLYSKLTVDKSRWQEGNVFSCSVMHEALHNHYTQKSLSLSLGK
light 1: B1 light 1
heavy 2: not shown
light 2: not shown
notes: also called 8876I
B4: bispecific antibody Ab 4435 (bispecific antibody, human IgG4 S228P, kappa, lambda, F234A L235A)
heavy 1: B3 heavy 1
light 1: B1 light 1 with A2T, A80V
heavy 2: not shown
light 2: not shown
B5: bispecific antibody Ab 5466 (bispecific antibody, human IgG4 S228P, kappa, lambda, F234A L235A)
heavy 1: B1 heavy 1
light 1: B1 light 1
heavy 2: not shown
light 2: not shown
B6: bispecific antibody Ab 8747 (bispecific antibody, human IgG4 S228P, kappa, lambda, F234A L235A)
heavy 1: B1 heavy 1 with K19R, S41P, G49A, A57N, T80S, A81L, T99A
light 1: B1 light 1 with A2T, A80V
heavy 2: not shown
light 2: not shown

Each binder was assayed against T1, human CD123 SP1 ECD displayed on … (assay: MSD-CAT on pDisplay cells).
Procedure: (§1) The MSD-CAT was developed in-house as a label-free method to determine affinity using intact cells in a high throughput format. […] Cell lines used were human pDisplay CD123SP1 and pDisplay CD123SP2. […] These samples were prepared in DMEM Glutamax medium containing 0.05% Azide, 1% BSA, 3 mM EDTA. […] After equilibration the plate was centrifuged for 5 minutes ˜1000 rpm and free anti-CD3 detected on the supernatant. […] The assay buffer was removed without washing and 50 uL/well of 0.7 ug/mL of biotinylated antigen in assay buffer were added to MSD plates and incubated overnight (˜16 hours at 4° C.).
B1 was tested, and the Kd was 0.121 nM. B2 showed a Kd of 0.149 nM. In the case of B3, the Kd is reported as 1.29 nM. B4 was tested, and the Kd was 1.53 nM. B5 gave a Kd of 2.43 nM. With B6 the Kd was 1.76 nM.

These binders were tested against T2, human CD123 SP2 ECD displayed on … (assay: MSD-CAT on pDisplay cells).
Procedure: as §1
With B1 the Kd was 0.538 nM. B2 was tested, and the Kd was 0.461 nM. For B3, the Kd was 2.45 nM. B4 gave a Kd of 3.7 nM. For B5, the Kd was 1.72 nM. B6 gave a Kd of 2.21 nM.

Each binder was assayed against T3, Recombinant human CD123 SP1 ECD-His tag … (assay: SPR Biacore T200, captured antibody).
Procedure: (§2) Kinetic studies were performed at 25° C. using a Biacore T200 (Biacore, Inc., now part of GE Healthcare). […] The carboxymethyl groups of dextran were activated with N-Ethyl-N′-(3-Dimethylaminopropyl)carbodiimide (EDC) and N-hydroxysuccinimide (NHS). The anti-Fc antibody was coupled at pH 4.5 in 10 mM sodium acetate. Any remaining reactive sites on the surface were blocked by reaction with ethanolamine. […] 40-70 RU of antibody were captured. […] Association data was collected for 2 min followed by 10 min of dissociation. The surface was regenerated with 30 μL of 100 mM H3PO4 100 μL/min, followed by 50 mM NaOH. The samples for kinetic analysis were prepared in PBS-based buffer (D-PBS containing 3 mM EDTA and 0.005% surfactant P20). Data reported is the difference in SPR signal between the flow cell containing the captured antibody and a reference cell without captured antibody. Additional instrumental contributions to the signal were removed by subtraction of the data from the blank injection from the reference-subtracted signal. Data were analyzed by fitting association and dissociation phases at all concentrations (global fit) with a 1:1 binding model using the BIAevaluation software (BIAcore, Inc.).
B1 was tested, and the Kd was 1.34 nM, the koff was 0.00079 s⁻¹ and the kon was 587000 M⁻¹ s⁻¹. In the case of B2, the Kd is reported as 1.53 nM, the koff is reported as 0.00088 s⁻¹ and the kon is reported as 579000 M⁻¹ s⁻¹. Binder B3 has a Kd of 14.4 nM, a koff of 0.0049 s⁻¹ and a kon of 343000 M⁻¹ s⁻¹. For B4, the Kd was 14.3 nM, the koff was 0.0048 s⁻¹ and the kon was 337000 M⁻¹ s⁻¹. B5 showed a Kd of 13.7 nM, a koff of 0.0051 s⁻¹ and a kon of 371000 M⁻¹ s⁻¹. Work on B6 yielded a Kd of 14.3 nM, a koff of 0.0048 s⁻¹ and a kon of 337000 M⁻¹ s⁻¹.

These binders were tested against T4, Recombinant human CD123 SP2 ECD protein (assay: SPR Biacore T200, captured antibody).
Procedure: as §2
For B1, the Kd was 0.311 nM, the koff was 0.0011 s⁻¹ and the kon was 3.57e+06 M⁻¹ s⁻¹. Work on B2 yielded a Kd of 0.335 nM, a koff of 0.0013 s⁻¹ and a kon of 3.78e+06 M⁻¹ s⁻¹. With B3 the Kd was 1.75 nM, the koff was 0.005 s⁻¹ and the kon was 2.83e+06 M⁻¹ s⁻¹. Work on B4 yielded a Kd of 1.74 nM, a koff of 0.005 s⁻¹ and a kon of 2.88e+06 M⁻¹ s⁻¹. Work on B5 yielded a Kd of 1.69 nM, a koff of 0.0049 s⁻¹ and a kon of 2.88e+06 M⁻¹ s⁻¹. For B6, the Kd was 1.63 nM, the koff was 0.0052 s⁻¹ and the kon was 3.19e+06 M⁻¹ s⁻¹.

The binders below were run against T5, cell-surface CD3 epsilon on primary cynomolgus T cells (cynomolgus monkey, UniProt Q95LI5 22-198) (assay: flow cytometry competition with labeled CD3B146 on T cells).
T5 construct: whole, on cells; also called cynomolgus CD3e; Cyno T-cells
T5 sequence (Q95LI5 22-198): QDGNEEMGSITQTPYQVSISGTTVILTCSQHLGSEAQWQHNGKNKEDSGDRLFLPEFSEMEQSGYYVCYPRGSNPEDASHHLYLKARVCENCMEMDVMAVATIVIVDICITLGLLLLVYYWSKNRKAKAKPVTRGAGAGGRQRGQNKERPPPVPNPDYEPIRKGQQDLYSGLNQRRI
Description: (§3) The format involved competition binding using a fixed concentration of labeled anti-CD3 mAb of known affinity and increasing concentrations of unlabeled test Abs (Ashkenazi A et al. PNAS: 88:10535, 1991.).
With B1 the Kd was 29.1 nM. B2 showed a Kd of 11.2 nM. B3 showed a Kd of 110 nM. For B4, the Kd was 139 nM. B5 was tested, and the Kd was 25.3 nM. B6 showed a Kd of 9.5 nM.

Each binder was assayed against T6, cell-surface CD3 epsilon on primary human T cells (human, UniProt P07766 23-207) in the same assay as above.
T6 construct: whole, on cells; part of the CD3/TCR complex on the cells
T6 sequence (P07766 23-207): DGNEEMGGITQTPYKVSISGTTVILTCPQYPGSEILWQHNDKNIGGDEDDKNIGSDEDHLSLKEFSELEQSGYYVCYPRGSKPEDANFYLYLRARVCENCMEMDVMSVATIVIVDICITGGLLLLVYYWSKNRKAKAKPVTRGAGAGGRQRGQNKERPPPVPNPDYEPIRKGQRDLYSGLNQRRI
Description: as §3
B1 gave a Kd of 43 nM. Binder B2 has a Kd of 11 nM. Work on B3 yielded a Kd of 169 nM. In the case of B4, the Kd is reported as 174 nM. With B5 the Kd was 27.9 nM. For B6, the Kd was 9.6 nM.

The binders below were run against T6, cell-surface CD3 epsilon on primary … (assay: competition flow cytometry on primary human T cells (Human Donor 10357); competitor displaced: Alexa Fluor 488-labelled CD3B146).
Description: as §3
For B1, the “IC50 (read off the curve)” value was ~80 nM. For B2, the “IC50 (read off the curve)” value was ~20 nM. With B5 the “IC50 (read off the curve)” value was ~70 nM. In the case of B6, the “IC50 (read off the curve)” value is reported as ~20 nM.
